“Also recorded” adds a separate entry of the source.

Data set [1] in a line: Toxic reaction in animal experiments. It counts as in vivo. From the text:
The sDSS1 protein used in the following examples is produced and quality controlled by the company itself. Upon detection, the purity of the protein is more than 95%, and endotoxins (the content of endotoxins is less than 3 EU/mg protein) and other impurity residues meet the standards.

Data set [2] deals with Hep G2 cells. Briefly: Uptake of DiL-LDL by Hep G2 cells (fluorescence microscope, flow cytometry). It counts as cell-based, human. The conditions noted are these: 10 h. The protocol:
(§1) Materials: sDSS1 protein, DiL-oxLDL, DiL-LDL (ThermoFisher, L3482), human hepatoma cell Hep G2 (Cell Bank of Typical Culture Preservation Committee of Chinese Academy of Sciences, Catalog Number: SCSP-510).
(§2) Experimental method: (1) When detecting the phagocytosis of oxLDL by Hep G2 cells, Hep G2 cells were inoculated into a 6-well plate with 250000 cells per well. After 12 h, all the cells were adhered. The old culture medium was discarded. 1.5 ml 10 μg/ml DiL-oxLDL was added, or 1.5 ml 10 μg/ml DiL-oxLDL was added together with 5 μg/ml and 50 μg/ml of the sDSS1 protein. After incubation for 9 h in the incubator, the fluorescence signal in the cells was observed by a fluorescence microscope. The cells were digested by trypsin to form single cells for detecting fluorescence intensity via flow cytometry. (2) When detecting the phagocytosis of LDL by Hep G2 cells, Hep G2 cells were inoculated into a 6-well plate with 250000 cells per well. After 12 h, all the cells were adhered. The old culture medium was discarded. 1.5 ml 10 μg/ml DiL-LDL was added, or 1.5 ml 10 μg/ml DiL-LDL was added together with 5 μg/ml and 50 μg/ml of the sDSS1 protein. After incubation for 10 h in the incubator, the fluorescence signal in the cells was observed by fluorescence microscope. The cells were digested by trypsin to form single cells for detecting fluorescence intensity via flow cytometry.
(In general: A flow cytometer gives signals particle by particle.)

A further data set deals with ApoE−/− mice. Briefly: Atherosclerotic plaques of the aorta (en face oil red O staining) in high-fat diet ApoE−/− mice. It counts as in vivo. The note with it: 13 weeks. The protocol: FIGS. 15-16. The sDSS1 protein inhibits the formation of atherosclerotic plaques in ApoE−/− mice. […] At the end of the injection, the aorta was dissected for oil red O staining, and the area of plaques was calculated.
Experimental animals: ApoE−/− mice, 8-week-old, male, were purchased from Nanjing Biomedical Research Institute of Nanjing University. The experimental animals were housed in an animal room for one week before the experiment.
Experimental method: ApoE−/− mice were fed with high-fat diet containing 0.25% cholesterol starting from the age of 9 weeks. From the 10th week of high-fat diet feeding, the mice were randomly divided into three groups according to the total cholesterol level, with 10 mice in each group. […] At the 22nd week of high-fat diet feeding, that is, the 13th week of administration, the animals were executed and dissected, and the whole aorta was separated. The separated aorta was stained with en face oil red O to evaluate the formation of atherosclerotic plaques.

The test system of a further data set is LDL. Briefly: Co-incubation with LDL, SDS-PAGE separation, Coomassie brilliant blue staining. It counts as binding. The note with it: 12 h. The protocol:
(§3) Experimental materials: sDSS1 protein, sDSS1 mutant protein 1 (sDSS1-M1, SEQ ID NO: 15), sDSS1 mutant protein 2 (sDSS1-M2, SEQ ID NO: 16), oxidized low density lipoprotein (oxLDL) (Solarbio, Article No.: H7980); low density lipoprotein (LDL) (Solarbio, Article No.: H7960).
(§4) Experimental method: 2 μg of oxLDL or LDL was mixed with 6 μg of sDSS1 protein or 10 μg of sDSS1 protein in a 1.5 ml EP tube in the presence of 20 mM sodium acetate/acetic acid buffer (pH 4.5) or 20 mM phosphate buffer (pH 7.2) respectively, and incubated at 37° C. for 12 h. A loading buffer was added in the incubated product and evenly mixed, and the obtained mixture was denatured at 100° C. for 10 min to prepare a loading sample. The resulting sample was subjected to electrophoretic separation via polyacrylamide gel electrophoresis (SDS-PAGE). After separation, the SDS-PAGE gel was stained with Coomassie brilliant blue to display protein strips. The sDSS1-M1 or sDSS1-M2 protein was respectively mixed and incubated with oxLDL, and treated in the same way. 15 μL of the sample was used for SDS-PAGE electrophoresis separation.

Data set [3] has as its system macrophages differentiated from monocyte THP-1. Nature of the data set: Phagocytosis of DiL-oxLDL by macrophages differentiated from THP-1 (fluorescence microscope, flow cytometry). It counts as cell-based, human. The conditions noted are these: 10 μg/ml DiL-oxLDL, 5 h. How it is done:
Experimental materials: sDSS1 protein, DiL-oxLDL, phorbol ester (PMA, Sigma Aldrich, Article No.: P1585), human monocyte THP-1 (Cell Bank of Typical Culture Preservation Committee of Chinese Academy of Sciences, Catalog No.: SCSP-567).
Experimental method: THP-1 cells were inoculated into a 6-well plate with 250000 cells per well, and the culture solution contained 100 ng/mL PMA. After being activated by PMA for 48 h, the cells were cultured in a fresh culture medium for 4 days to facilitate cell adhesion. The old culture medium was discarded. 1.5 ml 10 μg/ml DiL-oxLDL was added, or 1.5 ml 10 μg/ml DiL-oxLDL was added together with 2 μg/ml, 5 μg/ml, 10 μg/ml, or 20 μg/ml of the sDSS1 protein. After incubation for 5 h in an incubator, the fluorescence signal in the cells was observed by a fluorescence microscope. The cells were digested by trypsin to form single cells for detecting fluorescence intensity via flow cytometry.

The target of the next data set is T1, oxLDL (Homo sapiens, UniProt P04114).
T1 construct: purchased Solarbio H7980
Briefly: Co-incubation with oxLDL, SDS-PAGE separation, Coomassie brilliant blue staining. It counts as binding. How it is done: as §3, §4

Data set [4] deals with Hep G2 cells. Nature of the data set: Uptake of DiL-oxLDL by Hep G2 cells (fluorescence microscope, flow cytometry). It counts as cell-based, human. The note with it: 9 h. The protocol:
as §1, §2

Where [5] appears, read: 50 μg/ml sDSS1 protein, 10 μg/ml DiL-LDL.

T1 sequence (P04114 28-4563): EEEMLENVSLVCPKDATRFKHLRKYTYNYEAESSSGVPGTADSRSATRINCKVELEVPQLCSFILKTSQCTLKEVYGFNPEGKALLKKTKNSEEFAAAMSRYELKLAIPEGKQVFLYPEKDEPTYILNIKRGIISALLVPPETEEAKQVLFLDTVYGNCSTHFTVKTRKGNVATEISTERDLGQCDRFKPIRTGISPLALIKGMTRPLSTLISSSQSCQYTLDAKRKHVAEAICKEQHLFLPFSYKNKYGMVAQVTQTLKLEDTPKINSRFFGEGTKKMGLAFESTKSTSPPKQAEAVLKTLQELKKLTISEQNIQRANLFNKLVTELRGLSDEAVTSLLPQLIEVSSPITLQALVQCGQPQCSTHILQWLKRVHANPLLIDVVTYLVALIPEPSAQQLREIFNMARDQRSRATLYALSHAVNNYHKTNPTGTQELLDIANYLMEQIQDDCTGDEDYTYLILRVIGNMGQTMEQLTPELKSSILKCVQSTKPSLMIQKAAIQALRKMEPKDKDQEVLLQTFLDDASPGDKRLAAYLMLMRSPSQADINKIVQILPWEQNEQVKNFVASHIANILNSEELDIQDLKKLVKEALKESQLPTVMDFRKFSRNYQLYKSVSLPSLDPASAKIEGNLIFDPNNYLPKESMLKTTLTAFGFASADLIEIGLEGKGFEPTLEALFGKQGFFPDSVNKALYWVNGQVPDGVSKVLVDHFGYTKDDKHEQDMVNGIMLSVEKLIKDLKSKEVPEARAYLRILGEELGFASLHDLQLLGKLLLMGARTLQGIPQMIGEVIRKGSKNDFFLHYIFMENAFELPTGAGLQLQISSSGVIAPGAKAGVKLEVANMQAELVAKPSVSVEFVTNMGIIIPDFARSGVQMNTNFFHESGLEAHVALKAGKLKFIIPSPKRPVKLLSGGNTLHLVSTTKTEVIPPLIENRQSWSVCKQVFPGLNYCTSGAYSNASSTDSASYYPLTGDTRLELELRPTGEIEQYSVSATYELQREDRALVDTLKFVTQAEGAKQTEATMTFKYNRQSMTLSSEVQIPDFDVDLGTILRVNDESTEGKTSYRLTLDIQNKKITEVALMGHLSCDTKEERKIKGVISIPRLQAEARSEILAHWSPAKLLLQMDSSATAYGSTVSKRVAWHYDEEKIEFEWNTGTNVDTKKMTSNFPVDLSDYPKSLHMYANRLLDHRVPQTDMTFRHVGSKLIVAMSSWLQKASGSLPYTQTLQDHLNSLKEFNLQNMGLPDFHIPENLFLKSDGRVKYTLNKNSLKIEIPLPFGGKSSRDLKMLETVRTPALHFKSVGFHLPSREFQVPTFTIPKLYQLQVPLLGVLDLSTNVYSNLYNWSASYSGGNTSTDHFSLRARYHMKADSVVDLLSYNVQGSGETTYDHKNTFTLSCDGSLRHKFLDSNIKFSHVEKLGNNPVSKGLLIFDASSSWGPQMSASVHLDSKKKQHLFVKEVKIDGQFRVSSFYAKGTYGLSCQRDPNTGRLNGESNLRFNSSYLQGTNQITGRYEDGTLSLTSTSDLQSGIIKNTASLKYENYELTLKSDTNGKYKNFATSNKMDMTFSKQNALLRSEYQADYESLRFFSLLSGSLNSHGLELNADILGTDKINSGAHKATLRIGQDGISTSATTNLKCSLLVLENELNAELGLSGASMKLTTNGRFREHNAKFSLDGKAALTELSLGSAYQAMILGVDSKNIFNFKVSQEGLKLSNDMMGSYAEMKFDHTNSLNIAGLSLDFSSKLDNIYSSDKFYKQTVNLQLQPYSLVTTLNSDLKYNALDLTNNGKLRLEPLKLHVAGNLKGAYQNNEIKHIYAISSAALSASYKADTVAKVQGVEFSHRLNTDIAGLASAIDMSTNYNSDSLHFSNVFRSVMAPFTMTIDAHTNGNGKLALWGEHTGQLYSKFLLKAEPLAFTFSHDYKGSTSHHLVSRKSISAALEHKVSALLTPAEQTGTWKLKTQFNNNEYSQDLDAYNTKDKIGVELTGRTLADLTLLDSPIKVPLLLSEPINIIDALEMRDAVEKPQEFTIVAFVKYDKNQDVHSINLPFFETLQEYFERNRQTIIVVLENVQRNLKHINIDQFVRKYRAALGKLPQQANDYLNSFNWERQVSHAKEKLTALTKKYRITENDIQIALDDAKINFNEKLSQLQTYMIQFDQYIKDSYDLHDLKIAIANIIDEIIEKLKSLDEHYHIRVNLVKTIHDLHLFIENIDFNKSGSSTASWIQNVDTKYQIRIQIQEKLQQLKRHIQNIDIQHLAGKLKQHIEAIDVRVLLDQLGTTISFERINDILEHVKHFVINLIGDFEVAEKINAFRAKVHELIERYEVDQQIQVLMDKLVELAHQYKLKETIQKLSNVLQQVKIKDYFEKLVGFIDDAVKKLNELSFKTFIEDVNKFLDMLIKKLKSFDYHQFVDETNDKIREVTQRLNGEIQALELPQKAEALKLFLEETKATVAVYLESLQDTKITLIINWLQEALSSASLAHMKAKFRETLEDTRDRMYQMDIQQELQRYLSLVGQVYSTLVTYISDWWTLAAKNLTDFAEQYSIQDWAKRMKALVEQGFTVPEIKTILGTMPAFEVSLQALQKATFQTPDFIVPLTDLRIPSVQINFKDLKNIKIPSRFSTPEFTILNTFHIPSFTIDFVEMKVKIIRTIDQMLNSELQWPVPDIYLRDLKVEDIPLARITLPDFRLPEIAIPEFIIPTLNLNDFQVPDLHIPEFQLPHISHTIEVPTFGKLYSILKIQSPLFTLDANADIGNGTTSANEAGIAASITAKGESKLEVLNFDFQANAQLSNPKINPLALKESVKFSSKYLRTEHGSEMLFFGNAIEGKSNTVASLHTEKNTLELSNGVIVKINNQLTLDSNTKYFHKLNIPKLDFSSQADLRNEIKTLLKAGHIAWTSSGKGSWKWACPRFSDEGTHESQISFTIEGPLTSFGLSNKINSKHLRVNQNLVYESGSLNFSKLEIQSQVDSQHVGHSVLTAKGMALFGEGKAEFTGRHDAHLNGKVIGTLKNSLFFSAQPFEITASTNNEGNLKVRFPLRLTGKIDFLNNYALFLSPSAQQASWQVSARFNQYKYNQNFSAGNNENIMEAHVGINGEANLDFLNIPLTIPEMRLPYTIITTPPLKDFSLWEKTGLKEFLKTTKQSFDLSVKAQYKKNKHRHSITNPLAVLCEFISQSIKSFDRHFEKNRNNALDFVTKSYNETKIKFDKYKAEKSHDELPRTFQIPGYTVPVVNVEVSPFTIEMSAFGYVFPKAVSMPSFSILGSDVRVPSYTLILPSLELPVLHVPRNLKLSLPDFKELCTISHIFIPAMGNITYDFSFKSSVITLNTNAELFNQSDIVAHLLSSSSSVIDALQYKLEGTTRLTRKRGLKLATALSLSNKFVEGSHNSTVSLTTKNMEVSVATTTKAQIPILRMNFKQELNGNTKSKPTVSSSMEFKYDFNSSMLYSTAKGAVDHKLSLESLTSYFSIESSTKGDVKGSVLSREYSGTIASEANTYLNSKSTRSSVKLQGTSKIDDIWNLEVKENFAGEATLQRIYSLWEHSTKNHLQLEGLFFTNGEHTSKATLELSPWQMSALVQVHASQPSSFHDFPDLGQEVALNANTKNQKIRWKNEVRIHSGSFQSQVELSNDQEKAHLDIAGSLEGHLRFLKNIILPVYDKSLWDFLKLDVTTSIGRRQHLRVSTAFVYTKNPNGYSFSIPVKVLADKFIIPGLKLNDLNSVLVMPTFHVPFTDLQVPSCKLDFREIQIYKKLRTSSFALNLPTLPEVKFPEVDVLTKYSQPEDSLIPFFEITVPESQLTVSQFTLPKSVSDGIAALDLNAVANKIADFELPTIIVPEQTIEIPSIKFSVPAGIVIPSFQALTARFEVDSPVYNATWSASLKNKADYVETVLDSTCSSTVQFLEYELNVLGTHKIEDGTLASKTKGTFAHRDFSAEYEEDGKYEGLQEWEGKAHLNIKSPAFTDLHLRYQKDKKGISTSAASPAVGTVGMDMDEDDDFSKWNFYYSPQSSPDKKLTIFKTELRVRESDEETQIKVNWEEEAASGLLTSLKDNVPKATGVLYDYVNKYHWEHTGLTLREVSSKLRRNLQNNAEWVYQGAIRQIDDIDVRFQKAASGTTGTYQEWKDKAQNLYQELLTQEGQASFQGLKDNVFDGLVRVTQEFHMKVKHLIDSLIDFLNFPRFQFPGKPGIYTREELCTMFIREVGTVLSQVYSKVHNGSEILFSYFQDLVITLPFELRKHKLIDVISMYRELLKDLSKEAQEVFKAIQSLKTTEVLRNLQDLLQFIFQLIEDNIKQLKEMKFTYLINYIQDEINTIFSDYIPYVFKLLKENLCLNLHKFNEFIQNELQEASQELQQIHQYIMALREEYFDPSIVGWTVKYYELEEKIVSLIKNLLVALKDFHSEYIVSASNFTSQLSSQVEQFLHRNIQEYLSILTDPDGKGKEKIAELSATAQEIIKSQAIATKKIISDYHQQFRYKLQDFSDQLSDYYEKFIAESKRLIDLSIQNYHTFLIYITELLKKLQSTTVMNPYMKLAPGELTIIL

B1: sDSS1 protein: sDSS1 protein produced by the company itself, purity more than 95%; sequence of human sDSS1 protein is SEQ ID NO:1 (protein, listed as Homo sapiens)
chain: MSEKKQPVDLGLLEEDDEFEEFPAEDWAGLDEDEDAHVWEDNWDDDNVEDDFSNQLRATVLLMILVCETPYGCYVLHQKGRMCSAFLCC
Turning to B1, the Animal toxic reaction result in data set [1] was “without causing obvious animal toxic reaction”. Moreover, the “Intensity of Dil fluorescence in Hep G2 cells, DiL-LDL (flow cytometry)” value in the data set on Hep G2 cells [2] (5 μg/ml sDSS1, 10 μg/ml DiL-LDL) is recorded as “basically consistent”; in the data set with Hep G2 cells [2] (5 μg/ml sDSS1, 10 μg/ml DiL-LDL, listed as sDSS1), “could not cause significant changes”; in the data set on Hep G2 cells [2] (setting [5]), “basically consistent; also recorded: could not cause significant changes”. The “Quantity of Hep G2 cells uptaking DiL-LDL (fluorescence microscope)” value was “not changed significantly” in the data set on Hep G2 cells [2] (5 μg/ml sDSS1 protein, 10 μg/ml DiL-LDL); “no significant difference” in the data set on Hep G2 cells [2] (5 μg/ml sDSS1 protein, 10 μg/ml DiL-LDL, listed as sDSS1); “not changed significantly” in the data set on Hep G2 cells [2] (setting [5]); “no significant difference” in the data set with Hep G2 cells [2] (50 μg/ml sDSS1 protein, 10 μg/ml DiL-LDL, listed as sDSS1). Also, in the data set on ApoE−/− mice (sDSS1 3 mg/kg intraperitoneal once a day, high-fat diet), the “Area of atherosclerotic plaques (en face oil red O) vs model group” value is reported as “significantly reduced”. In the data set with ApoE−/− mice (sDSS1 3 mg/kg intraperitoneal once a day, **P<0.01), the “Plaque area ratio (oil red O stained area / total aortic area) vs model group” value is “significantly smaller”. Also, the “Plaque area ratio, sDSS1 protein group vs positive drug group” value in the data set on ApoE−/− mice (sDSS1 3 mg/kg vs ATV 40 mg/kg) is reported as “no significant difference”. Moreover, the “Effect on plaque area in certain areas of the aorta vs positive drug” value in the data set with ApoE−/− mice (sDSS1 3 mpk vs ATV 40 mpk) is “even better”. The “Interaction with LDL (complex on SDS-PAGE gel)” value was “interacted with the sDSS1 protein; also recorded: resulted in interactions” in the data set on LDL (phosphate buffer pH 7.2, 37° C.) and “interacted with the sDSS1 protein; also recorded: resulted in interactions” with LDL (sodium acetate/acetic acid buffer pH 4.5, 37° C.). The “Macrophages having fluorescence (flow cytometry)” value in data set [3] (2 μg/ml sDSS1 protein) and in data set [3] (10 μg/ml sDSS1 protein) was “not detected; also recorded: basically didn't appear” in each case. The “Fluorescence in macrophages (fluorescence microscope)” value in data set [3] (sDSS1 protein added (2 and 10 μg/ml)) is listed as “no obvious fluorescence was observed in the cells, or the fluorescence was very weak; also recorded: basically no obvious fluorescent signals were observed”. The “Interaction with oxLDL (complex on SDS-PAGE gel)” value with oxLDL (phosphate buffer pH 7.2) is reported as “interacted with the sDSS1 protein; also recorded: resulted in interactions”; in the data set with oxLDL (sodium acetate/acetic acid buffer pH 4.5, 37° C., 12 h), “interacted with the sDSS1 protein; also recorded: resulted in interactions”. In addition, the “DiL fluorescence level within Hep G2 cells, DiL-oxLDL (flow cytometry)” value with Hep G2 cells [4] (5 μg/ml sDSS1, 10 μg/ml DiL-oxLDL) is recorded as “does not significantly affect; also recorded: did not significantly affect”. For the same molecule, the “DiL signal intensity in Hep G2 cells, DiL-oxLDL (flow cytometry)” value in the data set with Hep G2 cells [4] (50 μg/ml sDSS1 protein, 10 μg/ml DiL-oxLDL) is “significantly increase”.

Values taken from patent US12433934B2, “Methods and compositions for preventing and treating atherosclerosis and related diseases” (Shanghai Puyou Biomedical Co., Ltd., priority 2018, dated 2025).
